Drawing on patent publication US5726286, this text covers Plaques/10^6 PBMC (anti-SRBC antibody formation, hemolytic plaque assay) (Plaques/10^6 PBMC) for 3 substances.

Read-outs that look alike come from different tables or passages of the source.

The target in assay [1] is human MHC class II β chain (human).
The target is the same in assay [2]. The source holds these as a separate data set.

Substance BZLF2/Fc fusion protein displayed a Plaques/10^6 PBMC (anti-SRBC antibody formation, hemolytic plaque assay) (Plaques/10^6 PBMC) in assay [1] of 0.

IL-4 receptor/Fc fusion protein: the Plaques/10^6 PBMC (anti-SRBC antibody formation, hemolytic plaque assay) (Plaques/10^6 PBMC) in assay [1] is 788.

Substance Tie/Fc (Fc fusion) came in with a Plaques/10^6 PBMC (anti-SRBC antibody formation, hemolytic plaque assay) (Plaques/10^6 PBMC) in assay [2] of 606.
